Changes are numbered by the printed parent chain. In names and notes the source's numbering stands.
B1: phospho-mimetic tbWag31-T73E (DivIVA/Wag31 from M. tuberculosis, Rv2145c) (natural protein)
chain: MPLTPADVHNVAFSKPPIGKRGYNEDEVDAFLDLVENELTRLIEENSDLRQRINELDQELAAGGGAGVTPQAEQAIPAYEPEPGKPAPAAVSAGMNEEQALKAARVLSLAQDTADRLTNTAKAESDKMLADARANAEQILGEARHTADATVAEARQRADAMLADAQSRSEAQLRQAQEKADALQADAERKHSEIMGTINQQRAVLEGRLEQLRTFEREYRTRLKTYLESQLEELGQRGSAAPVDSNADAGGFDQFNRGKN
B2: phospho-ablative tbWag31-T73A (DivIVA/Wag31 from M. tuberculosis, Rv2145c) (natural protein)
chain: B1 chain with E73A

Target: the molecule itself
Assay: small angle X-ray scattering

Protein	binding result
B1	binds
B2	binds
